Experimental data reported in US20250304718A1, “HER2 SINGLE DOMAIN ANTIBODY AND USES THEREOF” (Institut Curie, priority 2024, published 2025).

B1: humanized anti-HER2 single domain antibody (sdAb) of the invention (VHH)
VHH: EVQLVESGGGLVQPGGSLRLSCAASGAFYKAYNMGWVRQAPGKGLEWVSAISATQGKWVYYADSVKGRFTISRDNSKNTVYLQMNSLRAEDTAVYYCAKLPISKKALYRGQGTLVTVSS
notes: Synthetic humanized/human VH single domain antibody (not a camelid VHH), selected by phage display on SKBR3 cells; also called VH anti-Her2; human VH anti-HER2
B2: anti-HER2 sdAb: fully humanized anti-HER2 VH single domain antibody, SEQ ID NO:2, CDRs SEQ ID NO:7-9 (protein)
VHH: MAEVQLVESGGGLVQPGGSLRLSCAASGAFYKAYNMGWVRQAPGKGLEWVSAISATQGKWVYYADSVKGRFTISRDNSKNTVYLQMNSLRAEDTAVYYCAKLPISKKALYRGQGTLVTVSS

How the values were obtained:
[1] = target: T1, HER2 (Receptor tyrosine-protein kinase erbB-2) on the surface of SKBR3 cells (human, UniProt P04626 23-1255); experiment: flow cytometry (FACS) on SKBR3 cells overexpressing HER2; MCF10A HER2-negative cells as control
T1 construct: Endogenous HER2 overexpressed on the SKBR3 breast tumor cell line; also called CD340
Protocol: (§1) From inventors humanized sdAb libraries, a phage display subtraction selection system was developed to identify sdAbs that selectively detect the surface of breast tumor cells. The SKBR3 target cell line was used because it overexpresses the HER2 protein on its surface, while the MCF10A cell line, derived from non-cancerous and HER2-negative mammary gland cells, was used to pre-adsorb the libraries. After 3 successive cycles of selection on these cell lines, sdAb clones were analyzed by flow cytometry (FACS) for their binding capacity on SKBR3 cells and MCF10A cells.

[2] = target: T2, Her2 recombinant ectodomain fused to a Rabbit Fc domain (human; rabbit, UniProt P04626 23-652); experiment: ELISA on recombinant Her2 ectodomain-Rabbit Fc
T2 construct: also called Her2 ectodomain-Rabbit Fc; not shown: Rabbit Fc domain

[3] = test system: Jurkat-derived clone bearing a NFAT-YFP gene reporter; experiment: Reporter cell system for CAR-T cell activity (FACS); format: cell-based; conditions: sdAb in second generation CAR (CD8 TM, 4-1BB, CD3z)
Description: The anti-HER2 sdAb of the invention was also validated for use in CAR-T format. The model of CAR chosen is the one used to treat diffuse lymphomas (Linguanti F, Abenavoli E M, Berti V, Lopci E. Metabolic Imaging in B-Cell Lymphomas during CAR-T Cell Therapy. Cancers (Basel). 2022 Sep. 27; 14(19):4700. doi: 10.3390/cancers14194700. PMID: 36230629; PMCID: PMC9562671). This anti-lymphoma CAR-T therapy called “second generation” comprises the transmembrane domain of CD8, a costimulation domain from 4-1BB and the CD3z signaling domain. In the case of Kymriah® targeting B lymphocytes, the binding module is an anti-CD19 scFv. In the construction of the invention, the anti-CD19 scFv was replaced by the anti-Her2 sdAb of the invention.
The inventors developed a reporter cell system allowing to identify CAR-T cell activity. It is based on a Jurkat-derived clone bearing a NFAT-YFP gene reporter activated by TCR clustering (Blanchard N. et al, The Journal of Immunology, 2004).

[4] = target: T3, Her2 recombinant ectodomain fused to a Rabbit Fc domain (Homo sapiens, UniProt P04626); experiment: ELISA on Her2 recombinant ectodomain; format: binding; conditions: data not shown
T3 construct: validated by ELISA on Her2 recombinant ectodomain fused to a Rabbit Fc domain; Rabbit Fc domain
Description: The anti-HER2 sdAb was afterward validated by ELISA on Her2 recombinant ectodomain fused to a Rabbit Fc domain (data not shown).

MCF10A cells = experiment: FACS binding of sdAb on MCF10A cells; conditions: MCF10A non-cancerous, HER2-negative; data not shown
Protocol: as §1
(§2) A human VH anti-HER2 was selected for further experiments.

SKBR3 cells = experiment: FACS binding of sdAb on SKBR3 cells; conditions: SKBR3 overexpresses HER2 on its surface; data not shown
Protocol: as §1, §2

Molecule	binding result [1]	binding result [2]	activation detected by FACS [3]	validation by ELISA [4]	recognition on MCF10A cells in FACS (MCF10A cells)	recognition on SKBR3 cells in FACS (SKBR3 cells)
B1	binds	binds	–	–	–	–
B2	–	–	specific activation	validated	not on MCF10A cells	specific recognition
